# From article PMC8632965
# Tests used:
# [1] = molecular target: domain 1 of CD147 (human) (UniProt P35613); assay: SPR; Biacore T200; CD147ECD peptides diluted in 10 mM sodium acetate pH 4.5 and immobilised on a CM5 chip; purified proteins injected as analytes at 10 µL/min; BSA signal subtracted
# [2] = molecular target: extracellular portion of CD147 (ECD), amino acids 22–205 (human) (UniProt P35613); assay: as above
substance,measurement,setting,value
extracellular portion of CD98 (212-630 of CD98hc) (domain or fragment),Kd,[1],3.53 µM
same,Kd,[2],0.431 µM
